Among the data in patent US20140178332A1 (published 2014) are IC50 values, retold here.

A word on the IC50: it is the midpoint of a concentration-inhibition curve.

The experiment deals with T1, recombinant purified human IL-12 p70 (human, UniProt P29459 23-219).
T1 construct: Disulfide-linked heterodimer of p35 and p40; also called hIL-12; Hu IL-12
T1 sequence 1: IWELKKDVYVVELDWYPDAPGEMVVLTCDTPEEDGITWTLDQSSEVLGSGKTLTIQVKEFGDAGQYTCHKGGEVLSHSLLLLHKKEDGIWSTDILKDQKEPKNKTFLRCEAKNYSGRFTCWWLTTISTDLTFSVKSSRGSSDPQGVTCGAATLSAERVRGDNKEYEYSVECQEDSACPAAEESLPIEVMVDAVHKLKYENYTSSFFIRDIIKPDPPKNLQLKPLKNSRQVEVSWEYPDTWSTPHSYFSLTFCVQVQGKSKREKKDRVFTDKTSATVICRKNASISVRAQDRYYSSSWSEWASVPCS
T1 sequence 2: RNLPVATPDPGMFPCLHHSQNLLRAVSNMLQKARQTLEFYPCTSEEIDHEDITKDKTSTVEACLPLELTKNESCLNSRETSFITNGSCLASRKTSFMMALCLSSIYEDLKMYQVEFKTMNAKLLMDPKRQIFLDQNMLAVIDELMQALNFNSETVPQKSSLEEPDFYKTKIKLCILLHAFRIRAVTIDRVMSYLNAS
The experiment in a line: competition ELISA on coated human IL-12, competitor of 0.8 µg/ml biotinylated 8E1, Expt. 1. The procedure:
MaxiSorp ELISA plates (Nalge Nunc International) were coated overnight at 4° C. with 100 μl/well of 1.0 μg/ml human IL-12 in 0.2 M sodium carbonate-bicarbonate buffer, pH 9.4, washed with Wash Buffer (PBS containing 0.1% Tween 20), and blocked for 1 hr at room temperature with 300 μl/well of SuperBlock Blocking Buffer in TBS (Pierce Chemical Company). […] As isotype controls, 100 μl/well of 100 μg/ml mouse IgG 1/κ (MuFd79) or humanized IgG1/κ (HuFd79) monoclonal antibodies in ELISA buffer was used. As a no-competitor control, 100 μl/well of ELISA Buffer was used. After incubating the plates for 1 hr at room temperature, and washing with Wash Buffer, bound antibodies were detected using 100 μl/well of 1 μg/ml HRP-conjugated streptavidin (Pierce Chemical Company) in ELISA buffer. After incubating for 1 hr at room temperature, and washing with Wash Buffer, color development was performed by adding 100 μl/well of ABTS Peroxidase Substrate/Peroxidase Solution B (KPL, Inc.). After incubating for 5 min at room temperature, color development was stopped by adding 50 μl/well of 2% oxalic acid. Absorbance was read at 415 nm.
The affinity of 8E1.4, 8E1.5 and 8E1.6 to human IL-12 was analyzed by competition ELISA as described above.

B1: murine anti-human IL-12p40 monoclonal antibody 8E1 (antibody, V domains shown)
VH: EVKLVESGGGLVQPGGSRKLSCAASGFTFSDYGMVWVRQAPGKGLEWVASISSGSSNIYYADTVKGRFTISRDDPNNTLFLQMRSLRSEDTAMYYCARNPYWGQGTTLTVSS
VL: DIVMTQSQKFMSTSVGDRVSVTCKASQNVGTNVAWYQQKPGQSPKGLIYSASHRYSGVPDRFAGSGSGTDFTLTISNVQSEDLAEYFCQQYNSYPLTFGGGTKLELKR
notes: Murine mAb; also called biotinylated 8E1
Turning to B1, the IC50 was 2.63 µg/mL.
